Test results as given in patent US12679878B2, “CRF2 receptor agonists and their use in therapy” (SANOFI, priority 2020, dated 2026).
Values belong to the binder of their own block, whether it stands above or below them. Starred links: 1 amine or outer side, 2 acyl side, 3 side chain; linkers in the order of their positions; H or OH if unused. Non-standard residues stand in square brackets, D forms with d. Groups on a side chain read outwards from the residue. *: point of attachment. C18 diacid = O=C(O)CCCCCCCCCCCCCCCCC(=O)*; γGlu = O=C(O)[C@H](CCC(=O)[*:2])N[*:1]; AEEA = NCCOCCOCC(=O)O; Aib = CC(C)(N)C(=O)O

Tests used:
rat CRF2R α receptor = rat CRF2R α receptor (rat, UniProt P47866 20-411); assay: cell-based or functional assay
[1] = molecular target: T1, anti-target CRF1R receptor (UniProt P34998 24-415, limits assumed); assay: cell-based or functional assay
T1 sequence (looked up): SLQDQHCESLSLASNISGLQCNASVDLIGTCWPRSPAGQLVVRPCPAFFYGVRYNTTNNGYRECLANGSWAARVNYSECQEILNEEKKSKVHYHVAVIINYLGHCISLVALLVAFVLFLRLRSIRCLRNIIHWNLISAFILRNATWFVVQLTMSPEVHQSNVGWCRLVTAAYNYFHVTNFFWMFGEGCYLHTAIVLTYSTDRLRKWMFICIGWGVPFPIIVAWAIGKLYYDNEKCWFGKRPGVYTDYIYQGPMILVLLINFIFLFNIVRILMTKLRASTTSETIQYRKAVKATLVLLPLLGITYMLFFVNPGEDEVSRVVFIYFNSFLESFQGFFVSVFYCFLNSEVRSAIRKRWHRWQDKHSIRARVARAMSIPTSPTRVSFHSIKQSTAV

Chain of rat CRF2R α receptor (P47866 20-411): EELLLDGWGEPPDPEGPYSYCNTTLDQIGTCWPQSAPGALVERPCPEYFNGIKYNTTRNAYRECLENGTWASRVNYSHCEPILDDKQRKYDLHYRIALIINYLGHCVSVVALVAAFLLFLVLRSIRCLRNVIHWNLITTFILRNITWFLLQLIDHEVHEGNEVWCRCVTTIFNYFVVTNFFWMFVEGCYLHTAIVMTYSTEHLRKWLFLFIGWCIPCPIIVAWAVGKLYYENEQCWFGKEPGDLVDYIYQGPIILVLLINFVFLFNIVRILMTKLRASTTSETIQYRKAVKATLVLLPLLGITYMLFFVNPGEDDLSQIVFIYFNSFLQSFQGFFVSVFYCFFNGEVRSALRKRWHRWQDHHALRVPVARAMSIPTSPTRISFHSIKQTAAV

- EC50 [nM], 0% HSA (cAMP, A7R5 cells) (rat CRF2R α receptor): 9.99 nM
- EC50[nM] 0% HSA (cAMP, CRF1R-overexpression CHO cells) [1]: > 1000 nM
- Emax (%) (cAMP, CRF1R-overexpression CHO cells) [1]: 5.94%
B1: peptide of SEQ ID NO: 166 (peptide)
peptide: Ac-IVLSLD[dV]PIKLK([AEEA-AEEA-γGlu-C18 diacid])QILLEQERQK[Aib]QREQAEKNEQILEQV-NH2
SMILES: CC[C@H](C)[C@H](NC(C)=O)C(=O)N[C@H](C(=O)N[C@@H](CC(C)C)C(=O)N[C@@H](CO)C(=O)N[C@@H](CC(C)C)C(=O)N[C@@H](CC(=O)O)C(=O)N[C@@H](C(=O)N1CCC[C@H]1C(=O)N[C@H](C(=O)N[C@@H](CCCCN)C(=O)N[C@@H](CC(C)C)C(=O)N[C@@H](CCCCNC(=O)COCCOCCNC(=O)COCCOCCNC(=O)CC[C@H](NC(=O)CCCCCCCCCCCCCCCCC(=O)O)C(=O)O)C(=O)N[C@@H](CCC(N)=O)C(=O)N[C@H](C(=O)N[C@@H](CC(C)C)C(=O)N[C@@H](CC(C)C)C(=O)N[C@@H](CCC(=O)O)C(=O)N[C@@H](CCC(N)=O)C(=O)N[C@@H](CCC(=O)O)C(=O)N[C@@H](CCCNC(=N)N)C(=O)N[C@@H](CCC(N)=O)C(=O)N[C@@H](CCCCN)C(=O)NC(C)(C)C(=O)N[C@@H](CCC(N)=O)C(=O)N[C@@H](CCCNC(=N)N)C(=O)N[C@@H](CCC(=O)O)C(=O)N[C@@H](CCC(N)=O)C(=O)N[C@@H](C)C(=O)N[C@@H](CCC(=O)O)C(=O)N[C@@H](CCCCN)C(=O)N[C@@H](CC(N)=O)C(=O)N[C@@H](CCC(=O)O)C(=O)N[C@@H](CCC(N)=O)C(=O)N[C@H](C(=O)N[C@@H](CC(C)C)C(=O)N[C@@H](CCC(=O)O)C(=O)N[C@@H](CCC(N)=O)C(=O)N[C@H](C(N)=O)C(C)C)[C@@H](C)CC)[C@@H](C)CC)[C@@H](C)CC)C(C)C)C(C)C

- EC50 [nM], 0% HSA (cAMP, A7R5 cells) (rat CRF2R α receptor): 76.9 nM
- EC50[nM] 0% HSA (cAMP, CRF1R-overexpression CHO cells) [1]: > 1000 nM
- Emax (%) (cAMP, CRF1R-overexpression CHO cells) [1]: -0.46%
B2: peptide of SEQ ID NO: 167 (peptide)
peptide: Ac-IVLSLD[dV]PIGLK([AEEA-AEEA-γGlu-C18 diacid])QILLEQERQK[Aib]QREQAEKNEQILEQV-NH2
SMILES: CC[C@H](C)[C@H](NC(C)=O)C(=O)N[C@H](C(=O)N[C@@H](CC(C)C)C(=O)N[C@@H](CO)C(=O)N[C@@H](CC(C)C)C(=O)N[C@@H](CC(=O)O)C(=O)N[C@@H](C(=O)N1CCC[C@H]1C(=O)N[C@H](C(=O)NCC(=O)N[C@@H](CC(C)C)C(=O)N[C@@H](CCCCNC(=O)COCCOCCNC(=O)COCCOCCNC(=O)CC[C@H](NC(=O)CCCCCCCCCCCCCCCCC(=O)O)C(=O)O)C(=O)N[C@@H](CCC(N)=O)C(=O)N[C@H](C(=O)N[C@@H](CC(C)C)C(=O)N[C@@H](CC(C)C)C(=O)N[C@@H](CCC(=O)O)C(=O)N[C@@H](CCC(N)=O)C(=O)N[C@@H](CCC(=O)O)C(=O)N[C@@H](CCCNC(=N)N)C(=O)N[C@@H](CCC(N)=O)C(=O)N[C@@H](CCCCN)C(=O)NC(C)(C)C(=O)N[C@@H](CCC(N)=O)C(=O)N[C@@H](CCCNC(=N)N)C(=O)N[C@@H](CCC(=O)O)C(=O)N[C@@H](CCC(N)=O)C(=O)N[C@@H](C)C(=O)N[C@@H](CCC(=O)O)C(=O)N[C@@H](CCCCN)C(=O)N[C@@H](CC(N)=O)C(=O)N[C@@H](CCC(=O)O)C(=O)N[C@@H](CCC(N)=O)C(=O)N[C@H](C(=O)N[C@@H](CC(C)C)C(=O)N[C@@H](CCC(=O)O)C(=O)N[C@@H](CCC(N)=O)C(=O)N[C@H](C(N)=O)C(C)C)[C@@H](C)CC)[C@@H](C)CC)[C@@H](C)CC)C(C)C)C(C)C
